We go through 2 proteins from paper doi:10.1101/2020.01.19.911149 (bioRxiv, 2020).

This series deals with the molecule itself. The experiment in a line: SEC-MALS. A general note: SEC sorts molecules by how far they enter the pores of the column.

B1: SmF-GFP (natural protein, S. cerevisiae, UniProt P54999 1-86, looked up)
chain: MSESSDISAMQPVNPKPFLKGLVNHRVGVKLKFNSTEYRGTLVSTDNYFNLQLNEAEEFVAGVSHGTLGEIFIRCNNVLYIRELPN
As to B1, the stoichiometry N (as a rule, the number of molecules, sites or subunits per partner or assembly) was determined as 14.

B2: BsHfq-GFP (natural protein, Bacillus subtilis, UniProt O31796 1-73, looked up)
chain: MKPINIQDQFLNQIRKENTYVTVFLLNGFQLRGQVKGFDNFTVLLESEGKQQLIYKHAISTFAPQKNVQLELE
For the protein B2, the “stoichiometry N” value was 6.
